The values below come from the RNAGym collection of RNA variant scans (doi:10.7554/elife.90254).

B1: LINE1-full (parent)
chain: UACGUAGGUGGUUUUCCCCUGAUAGUGCUAAGGGGGCCUGGAAGUUUGGACUGGGCAGAGCUCAACACAGCGUGGCAAAGUGGCUGUGGCUAGACUGCCUCUCUGGAUUCCUCGUCACUCAGCAGGGCAUCUCUGAGAGAAAUGCC

Variants of B1 are the subject of the series. Kind of series: self-cleavage, relative activity (ratio to wild type); higher = more cleavage; in vitro, sequencing; the parent is a self-cleaving ribozyme.
On to A31U G144U, for which the self-cleavage turned out to be 1.03.

With A31U G144A, the self-cleavage amounted to 0.96.

In the case of G34U C116U, the self-cleavage was determined as 1.46.

With A31U G34A, the self-cleavage turned out to be 0.56.

With G32A A124G, the self-cleavage turned out to be 0.69.

G32A A124U: the self-cleavage came out at 0.

As for G33C A117U, the self-cleavage came out at 0.85.

Consider G34A A142G, for which the self-cleavage is 1.45.

For G34A U115C, the self-cleavage is 2.03.

Consider G34A U115A, for which the self-cleavage was 1.08.

With G34A A43G, the self-cleavage was found to be 0.73.

G34A A43C: the self-cleavage came out at 1.23.

Regarding G33U C116U, the self-cleavage turned out to be 1.17.

As to G32C U45C, the self-cleavage stood at 1.

With G34A A138G, the self-cleavage worked out at 1.68.

Turning to G32A U52A, the self-cleavage amounted to 1.28.

As for G35A A138G, the self-cleavage is 1.22.

For A31U U81C, the self-cleavage is 0.75.

For the variant G33A U102A, the self-cleavage was determined as 0.64.

In the case of A31G U132A, the self-cleavage turned out to be 0.94.

Consider G33U A64G, for which the self-cleavage was determined as 0.21.

In the case of G33U A64U, the self-cleavage is 0.41.

With G34U U39A, the self-cleavage worked out at 1.89.

Turning to G34U U132C, the self-cleavage worked out at 1.51.

With G32A U134C, the self-cleavage came to 1.22.

G34A A121U: the self-cleavage came out at 1.22.

For the variant G34A A121G, the self-cleavage was found to be 1.16.

Regarding A31U U104C, the self-cleavage turned out to be 1.3.

Turning to G34U U52A, the self-cleavage was 1.22.

In the case of A31U C37A, the self-cleavage came out at 1.53.

G34U U96G: the self-cleavage is 0.

G35A C95A: the self-cleavage was found to be 0.07.

Take G32A U143C: the self-cleavage came to 1.4.

For A31G G44A, the self-cleavage is 2.09.

Take G34A A107G: the self-cleavage came out at 2.74.

Regarding G32A A107C, the self-cleavage was found to be 1.91.

Regarding G32A A107U, the self-cleavage is 1.27.

Regarding G32U A78G, the self-cleavage stood at 0.94.

Regarding G34A G70A, the self-cleavage came to 0.11.

For G33A U96C, the self-cleavage stood at 0.12.

Regarding G33A C76U, the self-cleavage was 1.87.

A31U U119A: the self-cleavage was found to be 1.17.

In the case of G32U A50G, the self-cleavage stood at 0.69.

For the variant A31G C118U, the self-cleavage is 1.73.

As to A31U C101U, the self-cleavage was 0.58.

G35A U39C: the self-cleavage came out at 0.53.

As for A31U G36U, the self-cleavage came out at 0.81.

Turning to G33U A141G, the self-cleavage stood at 1.32.

Take G34A A94G: the self-cleavage amounted to 0.18.

For G35A G105A, the self-cleavage worked out at 1.15.

In the case of G34U A129G, the self-cleavage worked out at 1.98.

Take G34A C120U: the self-cleavage is 1.64.

As to G34A A42G, the self-cleavage came to 0.35.

As for A31U C131U, the self-cleavage was 1.06.

Turning to A31G U130C, the self-cleavage was found to be 1.45.

In the case of A31G U130A, the self-cleavage is 1.26.

In the case of G32C U81C, the self-cleavage turned out to be 0.55.

Take G32C U81A: the self-cleavage was 1.9.

Consider G32A G97U, for which the self-cleavage amounted to 0.1.

Turning to G32C A77U, the self-cleavage was 0.81.

Turning to G33C A121G, the self-cleavage turned out to be 0.21.

With G34U G48A, the self-cleavage turned out to be 1.49.

For G33U A79G, the self-cleavage came to 1.51.

G32U G83U: the self-cleavage is 0.6.

Regarding G33U G114A, the self-cleavage is 1.36.

As for G33U A69G, the self-cleavage was determined as 0.69.

On to G34U A138U, for which the self-cleavage is 1.19.

Consider G34U A138G, for which the self-cleavage worked out at 1.56.

G32U: the self-cleavage amounted to 0.98.

As for G32A, the self-cleavage worked out at 1.23.

As to G32C, the self-cleavage was 1.23.

Consider A31U G125U, for which the self-cleavage was 1.37.

As to A31U U115A, the self-cleavage was 1.08.

Consider G34A U100C, for which the self-cleavage came to 1.37.

Consider G33U C103U, for which the self-cleavage turned out to be 1.15.

As to A31U A69G, the self-cleavage was 0.75.

G34C A107G: the self-cleavage worked out at 1.12.

On to A31G U62C, for which the self-cleavage came to 0.13.

For G32A U96C, the self-cleavage came to 0.13.

With A31U U102C, the self-cleavage amounted to 1.05.

For A31U U102A, the self-cleavage stood at 1.91.

Consider A31U U45C, for which the self-cleavage stood at 1.17.

Regarding A31U U45A, the self-cleavage is 0.9.

G32U C116U: the self-cleavage was 1.15.

As for G33A A57G, the self-cleavage stood at 0.56.

With G32A C71U, the self-cleavage came to 0.91.

Regarding G34A C95A, the self-cleavage is 0.07.

Turning to G34C G82A, the self-cleavage came to 2.16.

For the variant G32A U62A, the self-cleavage is 0.08.

As to G32A U62C, the self-cleavage came out at 0.07.

G33C U62C: the self-cleavage was found to be 0.1.

As for G32A A142G, the self-cleavage worked out at 1.22.

For the variant G32A A57U, the self-cleavage is 0.16.

On to G33A U115C, for which the self-cleavage was determined as 1.48.

G35A A43G: the self-cleavage worked out at 0.71.

In the case of G32C G60U, the self-cleavage stood at 0.02.

Regarding G32U U73C, the self-cleavage is 1.1.

Regarding G33U A50U, the self-cleavage came to 1.14.

In the case of A31G U104C, the self-cleavage is 1.91.

As for G34C A42G, the self-cleavage is 2.94.

As to G34U U85G, the self-cleavage stood at 0.09.

For G35A A124G, the self-cleavage turned out to be 0.61.

In the case of G32A A42G, the self-cleavage was 1.27.

Take A31U C145A: the self-cleavage was 1.65.

As to G33U A67U, the self-cleavage turned out to be 0.17.

With G35A A79U, the self-cleavage worked out at 1.72.

With G34U A107U, the self-cleavage was 1.96.

In the case of G33U A94G, the self-cleavage turned out to be 0.15.

Consider G33U A117G, for which the self-cleavage was found to be 1.39.

For the variant G34U U119C, the self-cleavage is 1.7.

Take G34A U45C: the self-cleavage worked out at 0.87.

Turning to G32A U132C, the self-cleavage amounted to 2.03.

A31U U46C: the self-cleavage turned out to be 1.05.

Turning to G32U A94G, the self-cleavage came out at 0.2.

Consider G32U U39A, for which the self-cleavage was 1.06.

As for G33C U91C, the self-cleavage was found to be 0.41.

With G35A A121U, the self-cleavage was determined as 0.97.

Regarding G32A U102C, the self-cleavage was 1.62.

G33U U134A: the self-cleavage stood at 1.24.

In the case of G32A C113U, the self-cleavage came to 1.43.

On to G34C A136G, for which the self-cleavage is 1.79.

As for G34U U91C, the self-cleavage is 0.51.

As for G34U U91A, the self-cleavage came to 0.49.

Consider G34A U108G, for which the self-cleavage worked out at 1.55.

Regarding G34A U108C, the self-cleavage amounted to 1.16.

In the case of G35A A129U, the self-cleavage turned out to be 1.62.

On to G34A A79U, for which the self-cleavage amounted to 2.33.

Regarding G34A A79G, the self-cleavage came to 1.11.

Take G33A A43G: the self-cleavage amounted to 1.29.

Turning to G35A G86A, the self-cleavage stood at 0.05.

Regarding A31G G34A, the self-cleavage was determined as 0.77.

On to A31G U87A, for which the self-cleavage was 0.13.

Consider G32U U119A, for which the self-cleavage came out at 0.

With G32U A117G, the self-cleavage turned out to be 1.13.

In the case of G33A A142G, the self-cleavage is 1.2.

Take A31U U132C: the self-cleavage is 1.39.

As for G32U A121U, the self-cleavage came out at 0.

Turning to G32C U100C, the self-cleavage was 2.13.

With G34A A140G, the self-cleavage is 0.5.

As for A31U U143A, the self-cleavage came out at 0.78.

Consider G34C A140G, for which the self-cleavage came to 1.38.

As for A31U U112A, the self-cleavage amounted to 1.8.

As for A31U C51G, the self-cleavage was found to be 1.4.

As for G32A U73C, the self-cleavage was determined as 1.49.

Take A31U A77U: the self-cleavage stood at 0.96.

Turning to G33U A59U, the self-cleavage was found to be 0.62.

For the variant G32A G75C, the self-cleavage came to 0.65.

Turning to G34C A141G, the self-cleavage stood at 1.66.

In the case of G32A A65G, the self-cleavage worked out at 0.11.

As for G32A A65U, the self-cleavage amounted to 0.1.

Turning to A31U U73C, the self-cleavage was found to be 1.51.

For the variant G33C U104A, the self-cleavage was found to be 1.27.

For the variant G32U U62C, the self-cleavage came out at 0.06.

G34U A117G: the self-cleavage came to 2.

With G33C A59G, the self-cleavage is 0.

For the variant G33U C101U, the self-cleavage was 1.26.

For the variant G34U A65G, the self-cleavage amounted to 0.02.

Consider G34A U85A, for which the self-cleavage was 0.1.

As to G34A U85C, the self-cleavage was 0.12.

Consider G32C A59U, for which the self-cleavage is 0.78.

As to G34U A77G, the self-cleavage turned out to be 2.2.

As for G32C U115C, the self-cleavage is 1.56.

In the case of A31U C63G, the self-cleavage is 0.

For A31U A138G, the self-cleavage was 1.26.

On to G34A A77G, for which the self-cleavage amounted to 1.88.

In the case of G34U U109C, the self-cleavage worked out at 1.52.

G33A A107G: the self-cleavage was 1.52.
